The values that follow come from article PMC10033314.

Like-named read-outs stand apart in the source and are kept apart here.

As a reminder, the Kd is a measure of binding affinity in units of concentration.

For assay [1], the target named is Versican V1-5GAG (truncated V1, residues 21-694) (UniProt P13611).
Assay [2] concerns the target Quenched-fluorescent peptide substrate fluorescein-5(6)-carbonyl-Ala-Glu-Leu-Asn-Gly-Arg-Pro-Ile-Ser-Ile-Ala-Lys(5(6)-TAMRA).
For a further assay, the target named is ADAMTS1 (Homo sapiens) (UniProt Q9UHI8). The settings on record: cited from earlier work.
Assay [3] concerns the target Versican G3 (Homo sapiens) (UniProt P13611). The settings on record: cited from earlier work.
Assay [4] deals with Versican V1-5GAG (truncated V1, residues 21-694) (UniProt P13611). This is another data set of the same source.

For “ADAMTS1 variant MD (truncated after the disintegrin-like domain) (domain or fragment)”, the kcat/Km for cleavage of V1-5GAG (50 nM), time course with versikine ELISA in assay [1] was 61 M⁻¹ s⁻¹. Further, in assay [2], the kcat/Km for proteolysis of the QF peptide stood at 6100 M⁻¹ s⁻¹.
As to “ADAMTS1 variant MDT (truncated after the central TSR motif) (domain or fragment)”, the kcat/Km for cleavage of V1-5GAG (50 nM), time course with versikine ELISA in assay [1] worked out at 66 M⁻¹ s⁻¹. The kcat/Km for proteolysis of the QF peptide in assay [2] is 6200 M⁻¹ s⁻¹.
With “ADAMTS1 variant MDTCS (truncated after the spacer domain) (domain or fragment)”, the kcat/Km for cleavage of V1-5GAG (50 nM), time course with versikine ELISA in assay [1] amounted to 7300 M⁻¹ s⁻¹. Further, the kcat/Km for proteolysis of the QF peptide in assay [2] came out at 7600 M⁻¹ s⁻¹.
On to Fibulin-1 (from UniProt P23142), for which the Kd in the assay with ADAMTS1 (Homo sapiens) is 1000 nM.
As for “Fibulin-1 domain II (from UniProt P23142)”, the dissociation constant Kd in assay [3] was 26 nM.

B1: ADAMTS1 variant 756-765/828-835 (β3-β4 and β9-β10 loops replaced by those of ADAMTS4) (enzyme)
chain: FVSSHRYVETMLVADQSMAEFHGSGLKHYLLTLFSVAARLYKHPSIRNSVSLVVVKILVIHDEQKGPEVTSNAALTLRNFCNWQKQHNPPSDRDAEHYDTAILFTRQDLCGSQTCDTLGMADVGTVCDPSRSCSVIEDDGLQAAFTTAHELGHVFNMPHDDAKQCASLNGVNQDSHMMASMLSNLDHSQPWSPCSAYMITSFLDNGHGECLMDKPQNPIQLPGDLPGTSYDANRQCQFTFGEDSKHCPDAASTCSTLWCTGTSGGVLVCQTKHFPWADGTSCGEGKWCINGKCVNKTDRKHFDTPFHGSWGMWGPWGDCSRTCGGGVQYTMRECDNPVPKNGGKYCEGKRVRYRSCNLEDCPDNNGKTFREEQCEAHNEFSKASFGSGPAVEWIPKYAGVSPKDRCKLICQAKGIGYFFVLQPKVVDGTPCSPDSTSVCVQGQCVKAGCDRIIDSKKKFDKCGVCGGNGSTCKKISGSVTSAKPGYHDIITIPTGATNIEVKQQGNPGHRSSFLAIKAADGTYILNGDYTLSTLEQDIMYKGVVLRYSGSSAALERIRSFSPLKEPLTIQVLTAGNPQDTRIKYTYFVKKKKESFNAIPTFSAWVIEEWGECSKSCELGWQRRLVECRDINGQPASECAKEVKPASTRPCADHPCPQWQLGEWSSCSKTCGKGYKKRSLKCLSHDGGVLSHESCDPLKKPKHFIDFCTMAECS
Regarding B1, the kcat/Km for cleavage of V1-5GAG (50 nM), time course with versikine ELISA in assay [4] amounted to 460 M⁻¹ s⁻¹.

B2: ADAMTS1 K735Q (β1-β2 loop of the spacer domain) (enzyme)
chain: FVSSHRYVETMLVADQSMAEFHGSGLKHYLLTLFSVAARLYKHPSIRNSVSLVVVKILVIHDEQKGPEVTSNAALTLRNFCNWQKQHNPPSDRDAEHYDTAILFTRQDLCGSQTCDTLGMADVGTVCDPSRSCSVIEDDGLQAAFTTAHELGHVFNMPHDDAKQCASLNGVNQDSHMMASMLSNLDHSQPWSPCSAYMITSFLDNGHGECLMDKPQNPIQLPGDLPGTSYDANRQCQFTFGEDSKHCPDAASTCSTLWCTGTSGGVLVCQTKHFPWADGTSCGEGKWCINGKCVNKTDRKHFDTPFHGSWGMWGPWGDCSRTCGGGVQYTMRECDNPVPKNGGKYCEGKRVRYRSCNLEDCPDNNGKTFREEQCEAHNEFSKASFGSGPAVEWIPKYAGVSPKDRCKLICQAKGIGYFFVLQPKVVDGTPCSPDSTSVCVQGQCVKAGCDRIIDSKKKFDKCGVCGGNGSTCKKISGSVTSAQPGYHDIITIPTGATNIEVKQRNQRGSRNNGSFLAIKAADGTYILNGDYTLSTLEQDIMYKGVVLRYSGSSAALERIRSFSPLKEPLTIQVLTVGNALRPKIKYTYFVKKKKESFNAIPTFSAWVIEEWGECSKSCELGWQRRLVECRDINGQPASECAKEVKPASTRPCADHPCPQWQLGEWSSCSKTCGKGYKKRSLKCLSHDGGVLSHESCDPLKKPKHFIDFCTMAECS
Consider B2, for which the kcat/Km for cleavage of V1-5GAG (50 nM), time course with versikine ELISA in assay [4] came to 4800 M⁻¹ s⁻¹.

B3: ADAMTS1 variant 828-835 (β9-β10 loop residues 828-835 replaced by ADAMTS4 residues 788-795) (enzyme)
chain: FVSSHRYVETMLVADQSMAEFHGSGLKHYLLTLFSVAARLYKHPSIRNSVSLVVVKILVIHDEQKGPEVTSNAALTLRNFCNWQKQHNPPSDRDAEHYDTAILFTRQDLCGSQTCDTLGMADVGTVCDPSRSCSVIEDDGLQAAFTTAHELGHVFNMPHDDAKQCASLNGVNQDSHMMASMLSNLDHSQPWSPCSAYMITSFLDNGHGECLMDKPQNPIQLPGDLPGTSYDANRQCQFTFGEDSKHCPDAASTCSTLWCTGTSGGVLVCQTKHFPWADGTSCGEGKWCINGKCVNKTDRKHFDTPFHGSWGMWGPWGDCSRTCGGGVQYTMRECDNPVPKNGGKYCEGKRVRYRSCNLEDCPDNNGKTFREEQCEAHNEFSKASFGSGPAVEWIPKYAGVSPKDRCKLICQAKGIGYFFVLQPKVVDGTPCSPDSTSVCVQGQCVKAGCDRIIDSKKKFDKCGVCGGNGSTCKKISGSVTSAKPGYHDIITIPTGATNIEVKQRNQRGSRNNGSFLAIKAADGTYILNGDYTLSTLEQDIMYKGVVLRYSGSSAALERIRSFSPLKEPLTIQVLTAGNPQDTRIKYTYFVKKKKESFNAIPTFSAWVIEEWGECSKSCELGWQRRLVECRDINGQPASECAKEVKPASTRPCADHPCPQWQLGEWSSCSKTCGKGYKKRSLKCLSHDGGVLSHESCDPLKKPKHFIDFCTMAECS
With B3, in assay [4], the kcat/Km for cleavage of V1-5GAG (50 nM), time course with versikine ELISA amounted to 410 M⁻¹ s⁻¹.

B4: ADAMTS1 K735Q/K795Q (β1-β2 and β6-β7 loops of the spacer domain) (enzyme)
chain: FVSSHRYVETMLVADQSMAEFHGSGLKHYLLTLFSVAARLYKHPSIRNSVSLVVVKILVIHDEQKGPEVTSNAALTLRNFCNWQKQHNPPSDRDAEHYDTAILFTRQDLCGSQTCDTLGMADVGTVCDPSRSCSVIEDDGLQAAFTTAHELGHVFNMPHDDAKQCASLNGVNQDSHMMASMLSNLDHSQPWSPCSAYMITSFLDNGHGECLMDKPQNPIQLPGDLPGTSYDANRQCQFTFGEDSKHCPDAASTCSTLWCTGTSGGVLVCQTKHFPWADGTSCGEGKWCINGKCVNKTDRKHFDTPFHGSWGMWGPWGDCSRTCGGGVQYTMRECDNPVPKNGGKYCEGKRVRYRSCNLEDCPDNNGKTFREEQCEAHNEFSKASFGSGPAVEWIPKYAGVSPKDRCKLICQAKGIGYFFVLQPKVVDGTPCSPDSTSVCVQGQCVKAGCDRIIDSKKKFDKCGVCGGNGSTCKKISGSVTSAQPGYHDIITIPTGATNIEVKQRNQRGSRNNGSFLAIKAADGTYILNGDYTLSTLEQDIMYQGVVLRYSGSSAALERIRSFSPLKEPLTIQVLTVGNALRPKIKYTYFVKKKKESFNAIPTFSAWVIEEWGECSKSCELGWQRRLVECRDINGQPASECAKEVKPASTRPCADHPCPQWQLGEWSSCSKTCGKGYKKRSLKCLSHDGGVLSHESCDPLKKPKHFIDFCTMAECS
Turning to B4, in assay [4], the kcat/Km for cleavage of V1-5GAG (50 nM), time course with versikine ELISA turned out to be 570 M⁻¹ s⁻¹.

B5: ADAMTS1 R756Q/R759Q/R762Q (β3-β4 loop of the spacer domain) (enzyme)
chain: FVSSHRYVETMLVADQSMAEFHGSGLKHYLLTLFSVAARLYKHPSIRNSVSLVVVKILVIHDEQKGPEVTSNAALTLRNFCNWQKQHNPPSDRDAEHYDTAILFTRQDLCGSQTCDTLGMADVGTVCDPSRSCSVIEDDGLQAAFTTAHELGHVFNMPHDDAKQCASLNGVNQDSHMMASMLSNLDHSQPWSPCSAYMITSFLDNGHGECLMDKPQNPIQLPGDLPGTSYDANRQCQFTFGEDSKHCPDAASTCSTLWCTGTSGGVLVCQTKHFPWADGTSCGEGKWCINGKCVNKTDRKHFDTPFHGSWGMWGPWGDCSRTCGGGVQYTMRECDNPVPKNGGKYCEGKRVRYRSCNLEDCPDNNGKTFREEQCEAHNEFSKASFGSGPAVEWIPKYAGVSPKDRCKLICQAKGIGYFFVLQPKVVDGTPCSPDSTSVCVQGQCVKAGCDRIIDSKKKFDKCGVCGGNGSTCKKISGSVTSAKPGYHDIITIPTGATNIEVKQQNQQGSQNNGSFLAIKAADGTYILNGDYTLSTLEQDIMYKGVVLRYSGSSAALERIRSFSPLKEPLTIQVLTVGNALRPKIKYTYFVKKKKESFNAIPTFSAWVIEEWGECSKSCELGWQRRLVECRDINGQPASECAKEVKPASTRPCADHPCPQWQLGEWSSCSKTCGKGYKKRSLKCLSHDGGVLSHESCDPLKKPKHFIDFCTMAECS
B5: the kcat/Km for cleavage of V1-5GAG (50 nM), time course with versikine ELISA in assay [4] stood at 870 M⁻¹ s⁻¹.

B6: ADAMTS1 K818Q (β8-β9 loop of the spacer domain) (enzyme)
chain: FVSSHRYVETMLVADQSMAEFHGSGLKHYLLTLFSVAARLYKHPSIRNSVSLVVVKILVIHDEQKGPEVTSNAALTLRNFCNWQKQHNPPSDRDAEHYDTAILFTRQDLCGSQTCDTLGMADVGTVCDPSRSCSVIEDDGLQAAFTTAHELGHVFNMPHDDAKQCASLNGVNQDSHMMASMLSNLDHSQPWSPCSAYMITSFLDNGHGECLMDKPQNPIQLPGDLPGTSYDANRQCQFTFGEDSKHCPDAASTCSTLWCTGTSGGVLVCQTKHFPWADGTSCGEGKWCINGKCVNKTDRKHFDTPFHGSWGMWGPWGDCSRTCGGGVQYTMRECDNPVPKNGGKYCEGKRVRYRSCNLEDCPDNNGKTFREEQCEAHNEFSKASFGSGPAVEWIPKYAGVSPKDRCKLICQAKGIGYFFVLQPKVVDGTPCSPDSTSVCVQGQCVKAGCDRIIDSKKKFDKCGVCGGNGSTCKKISGSVTSAKPGYHDIITIPTGATNIEVKQRNQRGSRNNGSFLAIKAADGTYILNGDYTLSTLEQDIMYKGVVLRYSGSSAALERIRSFSPLQEPLTIQVLTVGNALRPKIKYTYFVKKKKESFNAIPTFSAWVIEEWGECSKSCELGWQRRLVECRDINGQPASECAKEVKPASTRPCADHPCPQWQLGEWSSCSKTCGKGYKKRSLKCLSHDGGVLSHESCDPLKKPKHFIDFCTMAECS
Turning to B6, in assay [4], the kcat/Km for cleavage of V1-5GAG (50 nM), time course with versikine ELISA was 6050 M⁻¹ s⁻¹.

B7: ADAMTS1 K795Q (β6-β7 loop of the spacer domain) (enzyme)
chain: FVSSHRYVETMLVADQSMAEFHGSGLKHYLLTLFSVAARLYKHPSIRNSVSLVVVKILVIHDEQKGPEVTSNAALTLRNFCNWQKQHNPPSDRDAEHYDTAILFTRQDLCGSQTCDTLGMADVGTVCDPSRSCSVIEDDGLQAAFTTAHELGHVFNMPHDDAKQCASLNGVNQDSHMMASMLSNLDHSQPWSPCSAYMITSFLDNGHGECLMDKPQNPIQLPGDLPGTSYDANRQCQFTFGEDSKHCPDAASTCSTLWCTGTSGGVLVCQTKHFPWADGTSCGEGKWCINGKCVNKTDRKHFDTPFHGSWGMWGPWGDCSRTCGGGVQYTMRECDNPVPKNGGKYCEGKRVRYRSCNLEDCPDNNGKTFREEQCEAHNEFSKASFGSGPAVEWIPKYAGVSPKDRCKLICQAKGIGYFFVLQPKVVDGTPCSPDSTSVCVQGQCVKAGCDRIIDSKKKFDKCGVCGGNGSTCKKISGSVTSAKPGYHDIITIPTGATNIEVKQRNQRGSRNNGSFLAIKAADGTYILNGDYTLSTLEQDIMYQGVVLRYSGSSAALERIRSFSPLKEPLTIQVLTVGNALRPKIKYTYFVKKKKESFNAIPTFSAWVIEEWGECSKSCELGWQRRLVECRDINGQPASECAKEVKPASTRPCADHPCPQWQLGEWSSCSKTCGKGYKKRSLKCLSHDGGVLSHESCDPLKKPKHFIDFCTMAECS
Consider B7, for which, in assay [4], the kcat/Km for cleavage of V1-5GAG (50 nM), time course with versikine ELISA was 730 M⁻¹ s⁻¹.
